One substance from patent US20260034246A1 can be followed below.

In general, Kd refers to the constant that tells how readily two partners part at equilibrium. A lower Kd goes with tighter binding.

In test [1] the target is Human Complement C5 Protein (human) (UniProt P01031).
Test [2] has as its target Cyno Complement C5 Protein (cynomolgous macaque).
For test [3], the target named is Mouse Complement C5 Protein (mouse) (UniProt P06684).

With “recombinant C5 inhibitor (C5I) protein (from UniProt Q5YD59 19-168)”, the Kd in test [1] was 10.2 nM; in test [2], 5.09 nM; in test [3], 6.28 nM.
